The values below come from the supplement of paper PMC12636428.

Bounds are passed on as bounds.

The series relates to Saccharomyces cerevisiae. In words: transcriptional activation domain activity (GFP:mCherry ratio, weighted mean of sorted bins, harmonized to initial dataset scale) (arbitrary fluorescence ratio units); higher = stronger transcriptional activation. To be noted: beta-estradiol 1 µM; induction time 4 h. In outline: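 Each value is an activation activity: the read-weighted mean of bin median fluorescence, averaged across barcodes, then mapped linearly to the initial dataset scale. The tiles, fused to an estradiol-inducible synthetic transcription factor, sat at the yeast URA3 locus in GFP-reporter diploids. Cells spent 4 hours at 30 °C in SC with 1 uM beta-estradiol before sorting into 8 GFP:mCherry bins, and tiles below 50 reads were removed.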
Take “GGTASPPPPPDNRPPEERYAEQLRQLNDMGFFDFDRNVEALRRSGGSVQGAIE”: the “transcriptional activation domain activity” value was 28300. Take “SGPRASSGAKAQSLSQRGAKRKAASTARTEGASSSKSSRARGGKARASRVAKT”: the “transcriptional activation domain activity” value worked out at 32900. For the sequence “SSEESSSEDDDGDVKMADAKPAANGIYIYLSSINRLINPLQFQVSVKPTRMSL”, the “transcriptional activation domain activity” value was 47200. For “NVRLQVDQCAFVLEHCADATPGLINYIQWYYCSSTKPIVFILMCFWLLFLFGF” the value was 40400; for “RSEKRSEERSSRSGPTDRVEGQERGSDRERGREKRGSDRESSRRDRGGEGERA”, 31700.

For the sequence “GSEEDAARAASTSRKRRRASAPRTGDGSDDERESSRAEASAGAGAGAEAKPRR”, the “transcriptional activation domain activity” value came to 18600. In the case of “MAKSDPHQPGRIRAFKPKVSTGCKTCKIRRVKCDEAKPACKRCSSTGRKCDGY”, the “transcriptional activation domain activity” value turned out to be 16300.

Take “AHSKKKTCDVCKYPYSFTKVYAQDMPARLPVFLLLRRLAQQGALAMLFAIRAV”: the “transcriptional activation domain activity” value was found to be 73300.

Regarding “MGGGCLYIILFLLRTTLGVMWVFFCLLFYLFLFWFSKSLIFFSLFLVLIPSYF”, the “transcriptional activation domain activity” value turned out to be 36500. Take “MIERCLMMGPSLGLYVFDLFLLEVGYLAFYAHFNLFSMFAYVFPFIPLVGIRC”: the “transcriptional activation domain activity” value was 41500.

As to “VWIVIYISLSYLFSGVLESVILIYSWIRGFPVIQLLFPKCQVYMNGFLVLFVI”, the “transcriptional activation domain activity” value was found to be 61200. On to “MLPTLRMLLGLICIAFLNRHCYGYSSRQMPMFAEAACFRIAHVLSPASAVYYP”, for which the “transcriptional activation domain activity” value amounted to 59700.

As to “PAPKRRGRPSKERVEEQQASDDETAQSSPKRRGRLPRQAASASASASAPVAAK”, the “transcriptional activation domain activity” value stood at 44100. On to “ICIIPFVNGFLCEPILPLVFFCSSLTLSESWFIFCIGLVVGLWLYTLVAGVCF”, for which the “transcriptional activation domain activity” value was found to be 37300. Turning to “MCFEFHPFSTSMFYLLSILFLDLSFWLSFYFFMSIVHSVALEFLFVFSLNFFV”, the “transcriptional activation domain activity” value is 42600. Turning to “AFLCWVAPNNATANFIGAGFGGMGFLNLSLDWSNISNLYNLFLTPWWTQVVVY”, the “transcriptional activation domain activity” value came out at 83700. Regarding “RTSEMIMGFFFKNIVWTFVLFWYQIFCQFNGSMMFEYVLVALYNLIFTSLPII”, the “transcriptional activation domain activity” value was determined as 62900. With “GFHHLLPVFQMLLFKLDHRLYMNIGDVAKFLNITTINVLLLQLTDLHSLINIP”, the “transcriptional activation domain activity” value was 54900. For the sequence “RLYLKGVVLTLWSLDTIHLICVCHALYWYLITNFLNAFVLEKLAWYRGWCPSH”, the “transcriptional activation domain activity” value turned out to be 68600. As for “TGGISELQNALDDTRASFAYVRLQYANDKESKREKFILVIWIGKSVKVMRKAK”, the “transcriptional activation domain activity” value amounted to 40200. As for “MVAAATARTRRAATVATRRTRPVVMAMAVVVATRNRRATTRAAGIRQAGIRRV”, the “transcriptional activation domain activity” value turned out to be 45900.

For the sequence “MDKLVQYEHTFLPPPHMQYLSYFDCLENLAHYIDAIHPNNLNMWFFLIYDQCI”, the “transcriptional activation domain activity” value was determined as 63300. For “RCLVLFLWALDTIHFAFTSHGLYFYLVTSFGDFAVLLSPTWTILAQVYVTNLS”, the “transcriptional activation domain activity” value is 50100. For the sequence “MVEGDEKPARNGGPALQVIVLGSGGGPREDNTTAFLVRSVASGWKRGSVLAVD”, the “transcriptional activation domain activity” value amounted to 55100.

As for “HLLVVAPLILAYLTVDDLSNLRLRLLGRCLRLLAISLAFLCACCCTSSSTPST”, the “transcriptional activation domain activity” value stood at 58200. For “SCTGVFRAYSILIIMVMMLSEVIILFRTCVLIRRERHGHYIICILCFFSLCVL” the value was 49600; for “SVTSEAIQVCVAARAREGEANRAVRNVIAEALRVPKSNVQVAKGLKSREKTLI”, 43300; for “MTVSWLRRLGTFLFEFFFFFSFFSFFFFLFSFFFFLFFLFSYFPFFSFFSFFS”, 21600. As for “MGRDSSLPYFNSPSFWVAFFWSGAGLFFSFFTGFIYFPEQIFFPLFFFLFFED”, the “transcriptional activation domain activity” value was found to be 58800. In the case of “NCVNLSFQLLFGELVVFLISLYMSVLYGLLYMFFVAQLPPEVRLIPMMCSCWF”, the “transcriptional activation domain activity” value was 59700.

Take “CLYVHQQLRESLGLGWLRQDTFFNYTRDRICVWNLNRKYSAFSTITSTVTHVR”: the “transcriptional activation domain activity” value is 39700. “VLDLVCIKFLSLFTFYIFLLLYLSIFQIICFFLFPFLFLFFPSCPLRRFLFSY”: the “transcriptional activation domain activity” value is 47000. Regarding “MVHIRTVVSFIFLVAGVLWTLFYLFIYFCLWDRRGHYVFLFCFCGCSRFMHFV”, the “transcriptional activation domain activity” value was found to be 56500. Regarding “LLFTLLWLLFFFFFFLFLLFFFVVLVFVFFVVYFFILLLLFIVVDDEWVLLGL”, the “transcriptional activation domain activity” value worked out at 45300. In the case of “SNHGLIYSKPLAWEWNCIIDSIENSLVGYCMEQIFVVHVSRLLLLQWSITQIF” it was 56000. “SAEFRANEFARHPLLDALLLSLMVDGSSTLLEIEVATLVCLLRQFAIHAPDTL”: the “transcriptional activation domain activity” value turned out to be 51800. For “MFENFSLLLSSLCFFPLSLFFCFFFLFPLSSFFFFVFLLAFCFCCFRFSLFFF” the value was 18100; for “AGGEAAAGGEAAAGEGAAAGGEAKAGEKAAGEGAKAGEEAAGEAKVEAAKPAA”, 18400. With “QSPSISMEPVSINETGSAYTTTNTALNDIDIPFSINELNELYKQVSSHNSHSQ”, the “transcriptional activation domain activity” value is 84100.

As to “KVAYRNPAADSEGWRRWGNDEARHGTLGVEEMERRIEALRKAKVGGGMVKVGF”, the “transcriptional activation domain activity” value was found to be 35500. “FCRCLTGTGKSRMGVPVVSRLLCHFQGLLLRVMAHLFEDRPGSVRWMTIELLK”: the “transcriptional activation domain activity” value is 28500. For the sequence “LQRPVRIMVDTKHSTVKTLVQEFVRIRPQRDHLRLAMLVLLCRDYFHKRVIVF”, the “transcriptional activation domain activity” value was found to be 49000. On to “MIQTPLFYYLFYILFYFIFIFIYSLLGFFLIFYLFVLFSFHFCFPPPPPFSFF”, for which the “transcriptional activation domain activity” value was 46900. Consider “FSLFGSFGCFGSLTLLLSLVMPVVLFVMLQWVMVWIWSCCFIFRLGMLTSFDV”, for which the “transcriptional activation domain activity” value was 54500. As for “FTRVDICFRNCYAGGTVVLVYSALAFFLLLMIAMYGNGYHGPFAWMTFTLSTV”, the “transcriptional activation domain activity” value is 53000. As for “LFTHLCLNPQLLRSISSVIFLPRITAPIHVYLYSILIYLQFKMLLLYTLFHIM”, the “transcriptional activation domain activity” value was found to be 77200. Turning to “EEKKEDDWQVLDGKEKAAGGAGEGDAAEGAEGGATTEGEKKDDAGGAPAGEGA”, the “transcriptional activation domain activity” value is under 6570. As to “NKHVFLILIRSTLCNNWLIATIWVVEIRFCLDLLQTAFPLIFFRFLTWLFFFQ”, the “transcriptional activation domain activity” value was determined as 79900. For the sequence “GTGDEQTGSGEKGKKKKASRACYHCQKAHLTCDDARPCGRCVKRNLASTCTDG”, the “transcriptional activation domain activity” value stood at 40600. For “NSSVYETVTRNLHDDLLGGSLNLKVILEMLLAHVIVNPSLVLEPAASLLRRNG” the value was 58200; for “NTMQFSMNLGNSTVSGPFSGLVNGLTPKGTNMEPSLWASWSYYALWLPTWGTT”, 52100. In the case of “GYLHHILKLFDCAFGISYPQLHHVLEVRTRALLLAGLNLTFVLDGPLPMWKAA”, the “transcriptional activation domain activity” value amounted to 54900.

In the case of “MATRHVSAANNANKPRACLTCRTSKHKCDGNDRSTAPCSRCLRTGKSCIWPAK”, the “transcriptional activation domain activity” value was 33800.

“DSHHHDELGSEITLADNKFSYLPPTLEELMEEQDCNNGRSFKNFMFSNDTGID”: the “transcriptional activation domain activity” value was 54500.

Regarding “AAPTETAPPAAEPAPVAAPIETKAAEPAAPVTEAPATTATEEVKPAVEPAKTE”, the “transcriptional activation domain activity” value was found to be 49400. Regarding “EVGADGGAAADEEEEEESDEEGEDGGRKRKKPKVAAEKPERKASAAPADGEKK”, the “transcriptional activation domain activity” value is under 6570. As to “KRREKRKKRKQRDQGRKKTKKDGVGEPSNEGGEDDNGESGKDDDDQGKESDKD”, the “transcriptional activation domain activity” value is 29600.

In the case of “DADMIVRLALKARLRWLLPKLTWLRIYFDGLYSNGDVLRVLILPKLLHLLIMC”, the “transcriptional activation domain activity” value turned out to be 66000. For “DGVKGWAVGVVVAGPFMAGLIKLIRWAGDSFVAYVVVFLFVFQLVAMTLYPTL” the value was 19000. Regarding “SSSKSAADVAAGEGKKTEKAGEKKEGTAAAAEKKKIEEKPAREEKKEEEKVPV”, the “transcriptional activation domain activity” value was 24300. On to “WDLLLGIQMSWDAVLDLWPRLWAWFEFLDTYSDILSSLLVYLSDADFSLIWVL”, for which the “transcriptional activation domain activity” value came to 62800. Turning to “AAINGSANGKRRRTKEDGGEKADGRAGPKSENVVLQKTIEHIHGLLQHKSVLL”, the “transcriptional activation domain activity” value was 45900.

For the sequence “PVIFRKRPTYLMFISVCLMYIYLFAVVYIRPYKLTRNNHVAIISWITIVIFLF”, the “transcriptional activation domain activity” value turned out to be 44400. In the case of “ERKEAKEQTRRETESKARRGADKEGSEENREDEEGEKKERTSESTDKQKSRRT”, the “transcriptional activation domain activity” value is 33700. Turning to “AVWPLSERSKFHNIISVDLSDLGDVINPDVGTITELVCFDESIADLYPVGLDS”, the “transcriptional activation domain activity” value was 122000. For “MIMGKVVGSIPTVSNFLPFSFLFFFSSFLFSSLSSCEVVCLIISFFSFFHWLS”, the “transcriptional activation domain activity” value is 55200. Consider “MGNGSVLLFLLFLCYGKGLGFFIFTFFFLFYLCIIYFFFPLFYYYLPLLSAGW”, for which the “transcriptional activation domain activity” value was determined as 67100.

For the sequence “MWTSLGCYSCLLCLLLHVVYVPSLLVPSQHPFLSSCLGAVGLTFTWMICCFFP”, the “transcriptional activation domain activity” value is 56500. “QGDYMCQYRGGLIGKHFKTLLQIMAFAVQDLVPPDVLEAWLILGRLTVLLWHM”: the “transcriptional activation domain activity” value amounted to 82000.

Regarding “LIHVVNLAQVLAVLIHRTVYGLLPIFEVMSCAIFPFLVSMWHIAFLLMYTVML”, the “transcriptional activation domain activity” value worked out at 45700.

Regarding “MGFCSLYGSIFLFLFLVFFLLFFSSSVGNGASFFFFFPSILFWYSLYPLFTSF”, the “transcriptional activation domain activity” value is 35900. As for “AAEKPAEEQPAETLVVEAKEVEEPKAAAKKGKKKAAKKEAEKVVEEQAVETPA”, the “transcriptional activation domain activity” value turned out to be 32500.

In the case of “RIVSSLFFICHGNYYIAFVILSKALDDYVPKIYVLNLNLNHLYLGLLIMCLLL”, the “transcriptional activation domain activity” value turned out to be 35800. As for “RDRRRRSRSRSRDRRNKRRRRELEDRSKRRRSKSRVKNEETSEAEKRGRRRKP”, the “transcriptional activation domain activity” value is 37900.
